Source: patent publication US20220363770A1 (Amgen, published 2022)

How the values were obtained:
human PAC1 receptor = target: T1, human PAC1 receptor (human, UniProt P41586 24-468); assay: cell-based or functional assay
T1 sequence: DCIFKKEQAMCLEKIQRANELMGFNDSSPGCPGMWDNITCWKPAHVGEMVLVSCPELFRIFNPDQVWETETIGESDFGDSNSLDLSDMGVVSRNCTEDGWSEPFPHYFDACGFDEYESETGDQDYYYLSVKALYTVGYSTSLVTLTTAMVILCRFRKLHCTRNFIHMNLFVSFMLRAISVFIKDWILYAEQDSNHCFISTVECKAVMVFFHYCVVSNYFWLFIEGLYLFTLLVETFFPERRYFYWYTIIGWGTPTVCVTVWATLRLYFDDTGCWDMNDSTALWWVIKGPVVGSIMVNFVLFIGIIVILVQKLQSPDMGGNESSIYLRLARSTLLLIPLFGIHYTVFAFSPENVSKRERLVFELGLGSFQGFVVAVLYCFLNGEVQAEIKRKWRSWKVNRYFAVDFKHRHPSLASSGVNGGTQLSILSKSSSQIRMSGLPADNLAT

human CGRP receptor = human CGRP receptor (human, UniProt Q16602 23-461; O60894 27-148); assay: cell-based or functional assay
Sequence of human CGRP receptor (Q16602 23-461 limits assumed, chain 1 of 2): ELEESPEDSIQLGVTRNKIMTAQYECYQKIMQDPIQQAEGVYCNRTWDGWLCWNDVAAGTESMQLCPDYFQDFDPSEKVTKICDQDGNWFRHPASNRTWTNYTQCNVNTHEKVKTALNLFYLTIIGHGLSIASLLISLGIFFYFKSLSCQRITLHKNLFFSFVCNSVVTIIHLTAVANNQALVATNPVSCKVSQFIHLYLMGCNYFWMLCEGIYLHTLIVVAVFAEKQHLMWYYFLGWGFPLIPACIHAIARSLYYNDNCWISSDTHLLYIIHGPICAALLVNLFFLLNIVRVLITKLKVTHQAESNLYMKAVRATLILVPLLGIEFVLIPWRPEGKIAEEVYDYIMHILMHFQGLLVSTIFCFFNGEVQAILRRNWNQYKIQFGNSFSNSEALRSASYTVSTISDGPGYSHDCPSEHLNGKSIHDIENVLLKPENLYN
Sequence of human CGRP receptor (O60894 27-148 limits assumed, chain 2 of 2): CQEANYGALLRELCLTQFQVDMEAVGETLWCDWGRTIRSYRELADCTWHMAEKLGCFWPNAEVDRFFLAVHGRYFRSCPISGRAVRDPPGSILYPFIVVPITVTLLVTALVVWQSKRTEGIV

B1: iPS:454835 (bispecific antibody, human IgG1, kappa, lambda, N297G)
light 1: QSVLTQPPSVSAAPGQKVTISCSGSRSNIGIKAVSWYQQLPGTAPKLLIYDNNKRPSGIPDRFSGSKSGTSATLGITGLQTGDEADYYCGTWDSRLSAVVFGGGTKLTVLGQPKAAPSVTLFPPSSEELQANKATLVCLISDFYPGAVTVAWKADSSPVKAGVETTTPSKQSNNKYAAKSYLSLTPEQWKSHRSYSCQVTHEGSTVEKTVAPTECS
heavy 1: QVQLVESGGGVVQPGRSLRLSCAASGFTFSSFGMHWVRQAPGKGLEWVAVISFDGSIKYSVDSVKGRFTISRDNSKNTLFLQMNSLRAEDTAVYYCARDRLNYYESSGYYHYKYYGMAVWGQGTTVTVSSASTKGPSVFPLAPSSKSTSGGTAALGCLVKDYFPEPVTVSWNSGALTSGVHTFPAVLQSSGLYSLESVVTVPSSSLGTQTYICNVNHKPSNTKVDKKVEPKSCDKTHTCPPCPAPELLGGPSVFLFPPKPKDTLMISRTPEVTCVVVDVSHEDPEVKFNWYVDGVEVHNAKTKPCEEQYGSTYRCVSVLTVLHQDWLNGKEYKCKVSNKALPAPIEKTISKAKGQPREPQVYTLPPSRKKMTKNQVSLTCLVKGFYPSDIAVEWESNGQPENNYKTTPPVLKSDGSFFLYSKLTVDKSRWQQGNVFSCSVMHEALHNHYTQKSLSLSPGK
light 2: EIVLTQSPATLSLSPGERATLSCRASKSVGRSLHWYQQKPGQAPRLLIKYASQSLSGIPARFSGSGSGTDFTLTISSLEPEDFAVYYCHQSSRLPFTFGPGTKVDIKRTVAAPSVFIFPPSDEQLKSGTASVVCLLNNFYPREAKVQWKVDNALQSGNSQESVTEQDSKDSTYSLESTLTLSKADYEKHKVYACEVTHQGLSSPVTKSFNRGEC
heavy 2: not shown
- Fold-improvement over 29G4v22 Ab (human PAC1 receptor): 9.3 fold
- IC50 (human PAC1 receptor): 0.73 nM
- Fold-improvement over 4E4 Ab (human CGRP receptor): 2.2 fold
- IC50 (human CGRP receptor): 0.28 nM

B2: iPS:454841 (bispecific antibody, human IgG1, kappa, lambda, N297G)
light 1: QSVLTQPPSVSAAPGQKVTISCSGSRSNIGIKAVSWYQQLPGTAPKLLIYDNNKRPSGIPDRFSGSKSGTSATLGITGLQTGDEADYYCGTWDSRLSAVVFGGGTKLTVLGQPKAAPSVTLFPPSSEELQANKATLVCLISDFYPGAVTVAWKADSSPVKAGVETTTPSKQSNNKYAAKSYLSLTPEQWKSHRSYSCQVTHEGSTVEKTVAPTECS
heavy 1: QVQLVESGGGVVQPGRSLRLSCAASGFTFSSFGMHWVRQAPGKGLEWVAVISFDGSIKYSVDSVKGRFTISRDNSKNTLFLQMNSLRAEDTAVYYCARDRLNYYESSGYYHYKYYGMAVWGQGTTVTVSSASTKGPSVFPLAPSSKSTSGGTAALGCLVKDYFPEPVTVSWNSGALTSGVHTFPAVLQSSGLYSLESVVTVPSSSLGTQTYICNVNHKPSNTKVDKKVEPKSCDKTHTCPPCPAPELLGGPSVFLFPPKPKDTLMISRTPEVTCVVVDVSHEDPEVKFNWYVDGVEVHNAKTKPCEEQYGSTYRCVSVLTVLHQDWLNGKEYKCKVSNKALPAPIEKTISKAKGQPREPQVYTLPPSRKKMTKNQVSLTCLVKGFYPSDIAVEWESNGQPENNYKTTPPVLKSDGSFFLYSKLTVDKSRWQQGNVFSCSVMHEALHNHYTQKSLSLSPGK
light 2: EIVLTQSPATLSLSPGERATLSCRASKSVGWSLHWYQQKPGQAPRLLIKYASQSLSGIPARFSGSGSGTDFTLTISSLEPEDFAVYYCHQSSRLPFTFGPGTKVDIKRTVAAPSVFIFPPSDEQLKSGTASVVCLLNNFYPREAKVQWKVDNALQSGNSQESVTEQDSKDSTYSLESTLTLSKADYEKHKVYACEVTHQGLSSPVTKSFNRGEC
heavy 2: not shown
- Fold-improvement over 29G4v22 Ab (human PAC1 receptor): 8.8 fold
- IC50 (human PAC1 receptor): 0.78 nM
- Fold-improvement over 4E4 Ab (human CGRP receptor): 1.4 fold
- IC50 (human CGRP receptor): 0.46 nM

B3: iPS:454843 (bispecific antibody, human IgG1, kappa, lambda, N297G)
light 1: QSVLTQPPSVSAAPGQKVTISCSGSRSNIGIKAVSWYQQLPGTAPKLLIYDNNKRPSGIPDRFSGSKSGTSATLGITGLQTGDEADYYCGTWDSRLSAVVFGGGTKLTVLGQPKAAPSVTLFPPSSEELQANKATLVCLISDFYPGAVTVAWKADSSPVKAGVETTTPSKQSNNKYAAKSYLSLTPEQWKSHRSYSCQVTHEGSTVEKTVAPTECS
heavy 1: QVQLVESGGGVVQPGRSLRLSCAASGFTFSSFGMHWVRQAPGKGLEWVAVISFDGSIKYSVDSVKGRFTISRDNSKNTLFLQMNSLRAEDTAVYYCARDRLNYYESSGYYHYKYYGMAVWGQGTTVTVSSASTKGPSVFPLAPSSKSTSGGTAALGCLVKDYFPEPVTVSWNSGALTSGVHTFPAVLQSSGLYSLESVVTVPSSSLGTQTYICNVNHKPSNTKVDKKVEPKSCDKTHTCPPCPAPELLGGPSVFLFPPKPKDTLMISRTPEVTCVVVDVSHEDPEVKFNWYVDGVEVHNAKTKPCEEQYGSTYRCVSVLTVLHQDWLNGKEYKCKVSNKALPAPIEKTISKAKGQPREPQVYTLPPSRKKMTKNQVSLTCLVKGFYPSDIAVEWESNGQPENNYKTTPPVLKSDGSFFLYSKLTVDKSRWQQGNVFSCSVMHEALHNHYTQKSLSLSPGK
light 2: EIVLTQSPATLSLSPGERATLSCRASKSVGWSLHWYQQKPGQAPRLLIKYASQSLSGIPARFSGSGSGTDFTLTISSLEPEDFAVYYCHQSSRLPFTFGPGTKVDIKRTVAAPSVFIFPPSDEQLKSGTASVVCLLNNFYPREAKVQWKVDNALQSGNSQESVTEQDSKDSTYSLESTLTLSKADYEKHKVYACEVTHQGLSSPVTKSFNRGEC
heavy 2: not shown
- Fold-improvement over 29G4v22 Ab (human PAC1 receptor): 5.8 fold
- IC50 (human PAC1 receptor): 0.93 nM
- Fold-improvement over 4E4 Ab (human CGRP receptor): 1.6 fold
- IC50 (human CGRP receptor): 0.42 nM

B4: iPS:454837 (bispecific antibody, human IgG1, kappa, lambda, N297G)
light 1: QSVLTQPPSVSAAPGQKVTISCSGSRSNIGIKAVSWYQQLPGTAPKLLIYDNNKRPSGIPDRFSGSKSGTSATLGITGLQTGDEADYYCGTWDSRLSAVVFGGGTKLTVLGQPKAAPSVTLFPPSSEELQANKATLVCLISDFYPGAVTVAWKADSSPVKAGVETTTPSKQSNNKYAAKSYLSLTPEQWKSHRSYSCQVTHEGSTVEKTVAPTECS
heavy 1: QVQLVESGGGVVQPGRSLRLSCAASGFTFSSFGMHWVRQAPGKGLEWVAVISFDGSIKYSVDSVKGRFTISRDNSKNTLFLQMNSLRAEDTAVYYCARDRLNYYESSGYYHYKYYGMAVWGQGTTVTVSSASTKGPSVFPLAPSSKSTSGGTAALGCLVKDYFPEPVTVSWNSGALTSGVHTFPAVLQSSGLYSLESVVTVPSSSLGTQTYICNVNHKPSNTKVDKKVEPKSCDKTHTCPPCPAPELLGGPSVFLFPPKPKDTLMISRTPEVTCVVVDVSHEDPEVKFNWYVDGVEVHNAKTKPCEEQYGSTYRCVSVLTVLHQDWLNGKEYKCKVSNKALPAPIEKTISKAKGQPREPQVYTLPPSRKKMTKNQVSLTCLVKGFYPSDIAVEWESNGQPENNYKTTPPVLKSDGSFFLYSKLTVDKSRWQQGNVFSCSVMHEALHNHYTQKSLSLSPGK
light 2: EIVLTQSPATLSLSPGERATLSCRASKAVGWSLHWYQQKPGQAPRLLIKYASQSLSGIPARFSGSGSGTDFTLTISSLEPEDFAVYYCHQSSRLPFTFGPGTKVDIKRTVAAPSVFIFPPSDEQLKSGTASVVCLLNNFYPREAKVQWKVDNALQSGNSQESVTEQDSKDSTYSLESTLTLSKADYEKHKVYACEVTHQGLSSPVTKSFNRGEC
heavy 2: not shown
- Fold-improvement over 29G4v22 Ab (human PAC1 receptor): 6.8 fold
- IC50 (human PAC1 receptor): 1.01 nM
- Fold-improvement over 4E4 Ab (human CGRP receptor): 1.4 fold
- IC50 (human CGRP receptor): 0.45 nM

B5: iPS:454839 (bispecific antibody, human IgG1, kappa, lambda, N297G)
light 1: QSVLTQPPSVSAAPGQKVTISCSGSRSNIGIKAVSWYQQLPGTAPKLLIYDNNKRPSGIPDRFSGSKSGTSATLGITGLQTGDEADYYCGTWDSRLSAVVFGGGTKLTVLGQPKAAPSVTLFPPSSEELQANKATLVCLISDFYPGAVTVAWKADSSPVKAGVETTTPSKQSNNKYAAKSYLSLTPEQWKSHRSYSCQVTHEGSTVEKTVAPTECS
heavy 1: QVQLVESGGGVVQPGRSLRLSCAASGFTFSSFGMHWVRQAPGKGLEWVAVISFDGSIKYSVDSVKGRFTISRDNSKNTLFLQMNSLRAEDTAVYYCARDRLNYYESSGYYHYKYYGMAVWGQGTTVTVSSASTKGPSVFPLAPSSKSTSGGTAALGCLVKDYFPEPVTVSWNSGALTSGVHTFPAVLQSSGLYSLESVVTVPSSSLGTQTYICNVNHKPSNTKVDKKVEPKSCDKTHTCPPCPAPELLGGPSVFLFPPKPKDTLMISRTPEVTCVVVDVSHEDPEVKFNWYVDGVEVHNAKTKPCEEQYGSTYRCVSVLTVLHQDWLNGKEYKCKVSNKALPAPIEKTISKAKGQPREPQVYTLPPSRKKMTKNQVSLTCLVKGFYPSDIAVEWESNGQPENNYKTTPPVLKSDGSFFLYSKLTVDKSRWQQGNVFSCSVMHEALHNHYTQKSLSLSPGK
light 2: EIVLTQSPATLSLSPGERATLSCRASKSVGWSLHWYQQKPGQAPRLLIKYASQSLSGIPARFSGSGSGTDFTLTISSLEPEDFAVYYCHQSSRLPFTFGPGTKVDIKRTVAAPSVFIFPPSDEQLKSGTASVVCLLNNFYPREAKVQWKVDNALQSGNSQESVTEQDSKDSTYSLESTLTLSKADYEKHKVYACEVTHQGLSSPVTKSFNRGEC
heavy 2: not shown
- Fold-improvement over 29G4v22 Ab (human PAC1 receptor): 8.6 fold
- IC50 (human PAC1 receptor): 0.79 nM
- Fold-improvement over 4E4 Ab (human CGRP receptor): 1.8 fold
- IC50 (human CGRP receptor): 0.36 nM

B6: iPS:454845 (bispecific antibody, human IgG1, kappa, lambda, N297G)
light 1: QSVLTQPPSVSAAPGQKVTISCSGSRSNIGIKAVSWYQQLPGTAPKLLIYDNNKRPSGIPDRFSGSKSGTSATLGITGLQTGDEADYYCGTWDSRLSAVVFGGGTKLTVLGQPKAAPSVTLFPPSSEELQANKATLVCLISDFYPGAVTVAWKADSSPVKAGVETTTPSKQSNNKYAAKSYLSLTPEQWKSHRSYSCQVTHEGSTVEKTVAPTECS
heavy 1: QVQLVESGGGVVQPGRSLRLSCAASGFTFSSFGMHWVRQAPGKGLEWVAVISFDGSIKYSVDSVKGRFTISRDNSKNTLFLQMNSLRAEDTAVYYCARDRLNYYESSGYYHYKYYGMAVWGQGTTVTVSSASTKGPSVFPLAPSSKSTSGGTAALGCLVKDYFPEPVTVSWNSGALTSGVHTFPAVLQSSGLYSLESVVTVPSSSLGTQTYICNVNHKPSNTKVDKKVEPKSCDKTHTCPPCPAPELLGGPSVFLFPPKPKDTLMISRTPEVTCVVVDVSHEDPEVKFNWYVDGVEVHNAKTKPCEEQYGSTYRCVSVLTVLHQDWLNGKEYKCKVSNKALPAPIEKTISKAKGQPREPQVYTLPPSRKKMTKNQVSLTCLVKGFYPSDIAVEWESNGQPENNYKTTPPVLKSDGSFFLYSKLTVDKSRWQQGNVFSCSVMHEALHNHYTQKSLSLSPGK
light 2: EIVLTQSPATLSLSPGERATLSCRASKSVGWSLHWYQQKPGQAPRLLIKYASQSLSGIPARFSGSGSGTDFTLTISSLEPEDFAVYYCHQSSRLPFTFGPGTKVDIKRTVAAPSVFIFPPSDEQLKSGTASVVCLLNNFYPREAKVQWKVDNALQSGNSQESVTEQDSKDSTYSLESTLTLSKADYEKHKVYACEVTHQGLSSPVTKSFNRGEC
heavy 2: not shown
- Fold-improvement over 29G4v22 Ab (human PAC1 receptor): 8.2 fold
- IC50 (human PAC1 receptor): 0.66 nM
- Fold-improvement over 4E4 Ab (human CGRP receptor): 1.7 fold
- IC50 (human CGRP receptor): 0.4 nM
